# B1: WT GLIC: wild-type Gloeobacter violaceus proton-gated pentameric ligand-gated ion channel (protein)
# chain: QDMVSPPPPIADEPLTVNTGIYLIECYSLDDKAETFKVNAFLSLSWKDRRLAFDPVRSGVRVKTYEPEAIWIPEIRFVNVENARDADVVDISVSPDGTVQYLERFSARVLSPLDFRRYPFDSQTLHIYLIVRSVDTRNIVLAVDLEKVGKNDDVFLTGWDIESFTAVVKPANFALEDRLESKLDYQLRISRQYFSYIPNIILPMLFILFISWTAFWSTSYEANVTLVVSTLIAHIAFNILVETNLPKTPYMTYTGAIIFMIYLFYFVAVIEVTVQHYLKVESQPARAASITRASRIAFPVVFLLANIILAFLFFGF
# modifications: left off: FLAG, C-terminal, state not stated
# Experiments:
# GLIC–Glyα1–ICD chimeras = assay: Proton concentration–response; type: cell-based, G. violaceus GLIC / rat Glyα1; conditions: proton activation (pH50), GLIC–Glyα1–ICD set, TEVC, −60 mV, ± standard error
# [1] = tested on: GLIC–GABAAρ1–ICD chimeras; assay: Proton concentration–response; type: cell-based, G. violaceus GLIC / human GABAAρ1; conditions: proton activation (pH50), GLIC–GABAAρ1–ICD set, TEVC, −60 mV, ± standard error
# GLIC–nAChα7–ICD chimeras = assay: Proton concentration–response; type: cell-based, G. violaceus GLIC / human nAChRα7; conditions: proton activation (pH50), GLIC–nAChα7–ICD set, TEVC, −60 mV, ± standard error
# [2] = tested on: GLIC–nAChα7–ICD chimeras and wild-type GLIC; type: cell-based, G. violaceus GLIC / human nAChRα7; conditions: pH 7.5 to 5, after 48 h
molecule,measurement,setting,value
B1,−log EC50,GLIC–Glyα1–ICD chimeras,5.81 ± 0.05
same,−log EC50,[1],5.81 ± 0.05
same,−log EC50,GLIC–nAChα7–ICD chimeras,5.81 ± 0.05
same,effect of RIC-3 co-expression on current amplitudes,[2],did not alter
